Measurements from the supplement of paper PMC9732359.
± gives the uncertainty stated by the source.

Assay: protein stability index of a GFP-peptide fusion (yeast GPS) (PSI 1-4); higher = more stable; sorted into four equal gates, so the index is relative within each strain
Summary of the method: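 Tiled 17-residue yeast protein peptides were fused downstream of GFP in a plasmid that also expresses Cherry, and the pooled library was carried in yeast. Mid-log cultures in leucine-free medium were sorted into four equal gates by GFP/Cherry fluorescence ratio, and plasmids from each gate were PCR-amplified and Illumina-sequenced, with reads assigned to strains by barcodes. The protein stability index for each peptide was each gate's read frequency times its gate number, summed.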

| Sequence | protein stability index (doa10∆) | protein stability index (pdr5∆) | protein stability index (san1∆) | protein stability index (ubr1∆) |
| --- | --- | --- | --- | --- |
| YGPPGTGKTLLAKAVAA [RPT4] | 2.17 ± 0.069 | 2.23 ± 0.06 | 1.98 ± 0.089 | 1.93 ± 0.05 |
| HLAVVCVDDNSKISFID [SSN2] | – | 2.84 ± 0.17 | – | 3.67 ± 0.16 |
| KESPWKILMYQYNIPPE [RRP6] | 2.23 ± 0.07 | 2.01 ± 0.066 | 1.42 ± 0.11 | 1.57 ± 0.055 |
| AQFYLGKRIAYVYRASK [RPL33A] | 1.81 ± 0.068 | 1.62 ± 0.076 | 1.36 ± 0.096 | 1.74 ± 0.069 |
| DNTSHDEQDDDNVNSTT [BRN1] | 3 ± 0.073 | 3.19 ± 0.088 | 3.17 ± 0.1 | 3.23 ± 0.062 |
| LHNIWSNGLLSIVLLLL [YML103C/NUP188] | 1.38 ± 0.069 | 1.34 ± 0.059 | 1.5 ± 0.14 | 1.54 ± 0.12 |
| RAPQQSVLQLFQSVQLN [SMC2] | 2 ± 0.05 | 1.98 ± 0.044 | 2.24 ± 0.051 | 1.91 ± 0.034 |
| VLMETKNTQSPQTPLVE [SNU114] | 2.95 ± 0.16 | 2.93 ± 0.12 | 2.67 ± 0.087 | 2.96 ± 0.11 |
| ARVLFDDMVEYEDGTPA [CYT1] | 3.47 ± 0.17 | 3.09 ± 0.096 | 3.24 ± 0.085 | 3.48 ± 0.11 |
| TIVGVKFNNGVVIAADT [PUP1] | 1.43 ± 0.072 | 2.55 ± 0.14 | – | 2.55 ± 0.17 |
| KINSWDQVLVKGGEQIS [YJL041W/NSP1] | 2.04 ± 0.087 | 2.56 ± 0.085 | 3.29 ± 0.087 | 2.21 ± 0.073 |
| PTTMVTNQKDTNDHVDK [ISW2] | 1.96 ± 0.062 | 2.03 ± 0.064 | 1.67 ± 0.1 | 1.75 ± 0.055 |
| SKSMKFSRRFDCRDVYC [CSN9] | 2.7 ± 0.07 | 2.64 ± 0.09 | 2.58 ± 0.088 | 2.66 ± 0.051 |
| MYNGKDRAQNSYQPMYQ [SSN3] | 3.31 ± 0.21 | 2.48 ± 0.23 | – | 3.2 ± 0.063 |
| TPLQSQLNLNNLTPANI [PGD1] | 2.98 ± 0.064 | 3.11 ± 0.053 | 2.99 ± 0.039 | 3.01 ± 0.04 |
| DLSYIEFLFESLKNDLP [ECM29] | 2.84 ± 0.13 | 2.65 ± 0.14 | 2.78 ± 0.083 | 3.13 ± 0.12 |
| LLHEMTQTYMQMIELNR [GRR1] | 2.18 ± 0.072 | 2.11 ± 0.051 | 2.2 ± 0.088 | 1.68 ± 0.048 |
| YLFHNDRIIHTWRTQLA [ECM29] | 1.55 ± 0.05 | 1.77 ± 0.042 | 1.47 ± 0.064 | 1.91 ± 0.039 |
| IADKTTYDKETITDLIE [SIR4] | 3.3 ± 0.063 | 3.33 ± 0.064 | 3.42 ± 0.051 | 3.27 ± 0.05 |
| QLTEFWTELCQREFKEI [NNF1] | 2.98 ± 0.21 | 3.41 ± 0.16 | 3.06 ± 0.07 | 3.09 ± 0.069 |
| KMDMICRNINRKHRNAQ [DIS3] | 2.2 ± 0.074 | 2.5 ± 0.11 | 2.37 ± 0.086 | 3.12 ± 0.12 |
| RSLLLSRVRADDLSTRF [RRP43] | 2.89 ± 0.21 | 3.63 ± 0.17 | – | 2.92 ± 0.16 |
| RDGGLRLGEMERDCVIA [RET1] | 3.15 ± 0.18 | 3.3 ± 0.12 | 2.54 ± 0.13 | 3.34 ± 0.095 |
| KIRRAARDLLTRDEKDP [RPS9A] | 2.33 ± 0.08 | 2.49 ± 0.065 | 2.3 ± 0.093 | 2.58 ± 0.078 |
| PRQLHNTHWGLVCPAET [RPB2] | 1.6 ± 0.089 | 1.7 ± 0.07 | 1.47 ± 0.12 | 1.2 ± 0.088 |
| TKVLNMKPSEILSLIEE [SMC2] | 2.86 ± 0.23 | 3.3 ± 0.17 | 3 ± 0.24 | 2.9 ± 0.11 |
| ILSKKWGFTNLDRPEYL [RPL10] | – | – | – | 2.89 ± 0.26 |

| Sequence | protein stability index (doa10∆) | protein stability index (pdr5∆) | protein stability index (san1∆) | protein stability index (ubr1∆) |
| --- | --- | --- | --- | --- |
| NYYYLFDKKSFFNGKAL [PRP8] | 2.55 ± 0.046 | 2.16 ± 0.043 | 2.91 ± 0.055 | 2.38 ± 0.037 |
| KEPVALIETVRQMKDVN [RPN2] | 3.36 ± 0.059 | 3.41 ± 0.067 | 3.15 ± 0.051 | 3.31 ± 0.041 |
| RYFFYLSKINAIQLDYS [RPN3] | 1.31 ± 0.057 | 1.23 ± 0.058 | 1.34 ± 0.15 | 1.33 ± 0.044 |
| NEENDLDVDPAKRIRVS [RPB2] | 3.01 ± 0.07 | 3 ± 0.07 | 3.11 ± 0.12 | 3.02 ± 0.047 |
| KVEKRVLGLTILRGEQI [SMB1] | 1.69 ± 0.078 | 2.15 ± 0.12 | 2 ± 0.17 | 1.95 ± 0.091 |
| TRKILEILNECHDELKA [MED4] | 2.04 ± 0.071 | 2.5 ± 0.13 | 2.44 ± 0.085 | 2.71 ± 0.097 |
| NLEQINEDLEDGHYIEE [REC8] | 2.93 ± 0.088 | – | 2.98 ± 0.16 | 3.2 ± 0.088 |
| RGHVLQFEWHQNSLLTN [SNF2] | 1.93 ± 0.055 | 2.3 ± 0.064 | 3.11 ± 0.056 | 2.6 ± 0.048 |
| TYLLKNDLVKARDLLDD [RPN9] | 2.7 ± 0.11 | 2.78 ± 0.11 | – | 2.52 ± 0.18 |
| NKELPINHTILGKLQDV [RPN8] | 2.62 ± 0.051 | 2.69 ± 0.068 | 2.5 ± 0.064 | 2.67 ± 0.049 |
| NQQAQARQQVAQQLRNQ [GAL11] | 2.49 ± 0.065 | 2.94 ± 0.13 | 2.45 ± 0.14 | 2.34 ± 0.1 |
| VKSLLSEEKIRDYSKEI [SIR4] | 3.14 ± 0.3 | 2.48 ± 0.14 | 2.46 ± 0.14 | – |
| ISMLVTQLQRGGTSDMN [CSI1] | 3.19 ± 0.1 | 2.53 ± 0.12 | 2.5 ± 0.11 | 2.53 ± 0.067 |
| LIIDGQIIFGVVEKKTV [RPO21] | 1.37 ± 0.087 | 1.38 ± 0.065 | 1.2 ± 0.2 | 1.54 ± 0.07 |
| QTLLQRSEDPAGLGKTN [YGR119C/NUP57] | 3.31 ± 0.084 | 3.12 ± 0.11 | 3.27 ± 0.078 | 3.39 ± 0.091 |
| LKYLSVEEVIKLVRDSF [PRE7] | 2.71 ± 0.13 | 3.27 ± 0.11 | 2.72 ± 0.12 | 3.08 ± 0.078 |
| PIMFQDFDDSTAQEINF [IRR1] | 2.81 ± 0.057 | 2.92 ± 0.059 | 2.52 ± 0.053 | 2.88 ± 0.043 |
| LAAVPAAGPASAGGAAA [RPP2A] | 2.35 ± 0.085 | 1.58 ± 0.063 | 1.4 ± 0.26 | 1.61 ± 0.071 |
| YDRATLTQLLSMMSDGI [RPO31] | 2.29 ± 0.062 | 2.44 ± 0.053 | 2.56 ± 0.054 | 1.66 ± 0.038 |
| IIKLVEGLANDPENKVP [RPS12] | 2.01 ± 0.086 | 1.77 ± 0.065 | 2.25 ± 0.092 | 2.08 ± 0.09 |
| RSCVSNSNENGTLERIK [RPN4] | 2.98 ± 0.07 | 3.07 ± 0.077 | 2.54 ± 0.065 | 2.95 ± 0.057 |
| KNDTHYLLPDDFHFSTD [BRN1] | 2.81 ± 0.072 | 3.19 ± 0.074 | 2.9 ± 0.055 | 2.95 ± 0.065 |
| PLLSLDVTPISMFGSDQ [RPN4] | 2.75 ± 0.12 | 2.79 ± 0.18 | 3.12 ± 0.13 | 3.18 ± 0.17 |
| LSIAIVGKDTPFTIYDG [PRE5] | 2.87 ± 0.066 | 2.94 ± 0.054 | 2.78 ± 0.08 | 3.07 ± 0.047 |
| EAHPTKVKNFGVWVRYD [RPL20A] | 3.02 ± 0.087 | 2.96 ± 0.056 | 3.01 ± 0.044 | 2.9 ± 0.047 |
| FQIEADFIGHNSNINTL [ASC1] | 2.1 ± 0.06 | 2.63 ± 0.049 | 2.35 ± 0.081 | 2.68 ± 0.043 |
